# Measurements reported in the nanobody polyreactivity screen of Harvey et al. (2022).
# Assay: yeast display, Sf9 membrane polyspecificity reagent, FACS + sequencing; frameworks hold sequencing errors
# Outline: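 Galactose induction of a Saccharomyces cerevisiae BJ5465 synthetic nanobody display library ran 36–48 hours. The cells were then stained for 1 hour at 4 °C with 10% biotinylated, detergent-solubilized Sf9 membrane reagent, pulled down on streptavidin microbeads and FACS-sorted into low and high (top ~1%) gates on expression and reagent-binding fluorescence. Labels for polyreactivity follow the gate of origin.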
row,Sequence,polyreactivity (PSR sort gate)
1,QVKLVESGGGLVQAGGSLRLSCAASGFIFAHYAMGWYRQAPGKERELVAAIRGGDGSTDYADSVKGRFTISRDNAKNTVYLQMNSLIPEDTAVYYCAKRGKRSRGVGGNYWGQGTQVTVSS,low polyreactivity
2,QVQLVESGGGIVQAGGSLRLSCAASGSISSAYAMGWYRQAPGKERELVAVITSGGSTNYADSVKGRFTISRDNAKNTVYLQMNSLKQEDTAVYYCATPVASVTGYDYWGLGTQVTVSS,low polyreactivity
3,QVQLVESGGGLVQAGGSLRLSCAASGSTFYYYAMGWYRQAPGKERELVAAISASGDSTYYADSVKGRFTISRDNAKNTVYLQMNSLKPEDTAVYYCAAQYYFYPHEFDYWGQGTQVTVSS,low polyreactivity
4,QVQLVESGGGLVQAGGSLRLSCAASGSTFPVNAMGWYRQAPGKERELVAAISSRGSSTYYADSVKGRFTISRDNAKNTVYLQMNSLKPVDTAVYYCAAPQRYPRFYYWGQGTQVTVSS,high polyreactivity
5,QVQLVESGGGLVQAGRSLRLSCAASGNTLRPNGMGWYRPAPGKERELVAAISSGGSTYYADSVKGRFTISRDNAKNTVYLQMNSLKPEDTAVYYCAAEYWYDYWGQGTQVTVSS,low polyreactivity
6,QVQLVESGGGLVQAGGSLRLSCAASGLTFEYNAMGWYRQAPGKERELVASISSGGGTNYADSVKGRFTISRDNAKNTVYLQMNSLKPEDTAVYYCATDNYDWSCWAFRGYWYDYWGQGTQVTVSS,low polyreactivity
7,QVQLVESGGGLVQAGGSLRLSCAASGGTFAGYAMGWYRQAPGKERELVAAISRSGGSTYYADSVKGRFTISRDNAKNTVYLQMNSLKPEDTAVYYCIAASRTKFDYWGQGTQVTVSS,high polyreactivity
8,QVQLVESGGGLVQAGGSLRLSCAASGIIFIYYTMGWYRQAPGTDRELVAVITTSGDGTYYADSVKGRFTISRDNAKNTGYLQMNSLKPEDTSVYYCAASYSTWVSTRNDYWGQGTQVTVSS,low polyreactivity
9,QVQLVESGGGLVQAGGSLRLSCSASGFIFQGYAMGWDRQAPGKERELVATITTSSRTYYADSVKGRFTISRDNAKNTVYLQMYSLKPEDTAVYYCATRGSYRSQRWYGYWGQGTQVTVSS,high polyreactivity
10,QDQHVESGGGLVQAGGSLRLSCDASGRTFTRYAMGWYRQAPGKERELVAAISRGGSTYYADSVKRRFTISRDNAKNTVYLQMNSLKPEDTAVYYCAARYGTYTAGNYWGQGTQVTVSS,high polyreactivity
11,QVQLVESGGGLVQAGGSLRLSCAASGSIFGDYAMGWYRQAPGKERELVADISSGGSTTYADSVTGRFTISRDNAKNTVYLQMNSLKPEDTAVYYCAVDGGDFSSYGNWGQGTQVTVSS,low polyreactivity
12,QVQLVESGGGLVQAGGSLRLSCAASGRTFRLNAMGWYRQAPGKERELVAAITASGGRTYYADSVKGRFTISRDNAKNTVYLQMNSLKPEDTAVYYCNTLSRTDASRFDYWGQGTQVTVSS,high polyreactivity
13,QVQLVESGGGLVQAGGSLRLSCAASGRIFGGNAMGWYRQAPAKERELVAAISKRGGSTYYADSVKGRFTISRDNAKNTVYLQMNSLKPEDTAVDYCAATAYADQGLDYGYWGQGTQVTVSS,high polyreactivity
14,QVQLVESGGGLVQAGGSLRLSCAASGSTFGFNAMGWYRPAPGKERELVAAINESGGDTYYADSVKGRFTISRDNAKNTVYLQMNSLKPEDTAVYYCAADEPSSVYGILVELEYWGQGTQVTVSS,high polyreactivity
15,QVQLVETGGGLVQAGGSLRLSCAATEFIFRNYDMGWYRQAPGKERELVASISRGTSTNYADSVKGRFTISRDNAKNTVYLQKNSLKPEDTAVYYCNKRFYYHPFDYWGQGSQVTVSS,high polyreactivity
16,QVQLVESGGGLVQAGGSLRLSCAASGSIFWYNAMGWYRQAPGKERELVAAISVGGGSTSSADSVKGRFTISRDNAKNTVYLQMHSLKPEDTAVYYCNSVRYYRLFAHYGEYGYWGQGTQVTVSS,high polyreactivity
17,QVQLVESGGGLVQAGGSLRLSCAASGNTFYYYAMGWYRQAPGKERELVASITWRGGDTYYADSVKGRFTISRDNAKNTVYLQMNSQKPEDTAVFYFAKPRLGRYDSMSYLGDYAGYVYWGQGTQVTLSS,low polyreactivity
18,QVQLVESGGGLVQAGGSLRLSCAASGFIFPYYAMGWYRQAPGKERELVAAITSSGGRTYYADSVKGRFTISRDNAKNTVYFQMNSLKPEDTAVYYCAAYYLTPTDVEYDYWGQGTQVTVSS,high polyreactivity
19,QVQLVESGGGLVQAGGSLRLSCAASGRIFYNNAMGWYRQAPGKERELVAAITYSGGSTYYADSVKGRFTISRDNAKNTVYLQMNSLKPEDTAVYYCAAEYYGPYSEGGESYDYWGQGTQVTVSS,low polyreactivity
20,QVQLVESGGGLVQAGGSLRLSCAASGGTFYVYAMGWYRQAPGKERELVAAISTSGGSTYYADSVKGRFTISRDNAKNTVYLQMNSLKPEDTAVYYCAARRVSFSGHPRYGYWGQGTQVTVSS,high polyreactivity
21,QVQLVESGGGLVQAGGSLSLICAASGSIFYEYAMGWYRQAPGKEREFVAAISSSGGSTYYADSVKGRFTISRDNAKNTVYLQMNSLKPEYTAVYYCNAQVGGVSIEYDYWGQGTQVTVSS,low polyreactivity

row,Sequence,polyreactivity (PSR sort gate)
1,QVQLVESGGGLVQAGGSLRLSCAASGRIFYYNAMGWYRQSPGKEREFVAAISSGGGSTYYADSVKGRFTISRDNAKNTVYLQMNSLKPEDTAVYYCAAKRQFYRGPAQALSGYGYWGQGTQVTVSS,high polyreactivity
2,QVQLVESGGGLVQAGGSLRLSCAASGSTFGSYAMGWYRQAPGKERELVAGISWSGGRTYYADSVKGRFTISRDNAKNTVYLQMNSLKPEDTAVFYCALDTGYYYARYNFWGQGTKVTVSS,low polyreactivity
3,QVQLVESGGGLVQAGGSLRLSCAASGSIFNHYAMGWYRQAPGKERELVAAISGSGGSTYYADSVKGRFTISRDNAQNTVYLQMYSLKPEDTAVYYCAARILRHWVSAEYYWGQGTQVTVSS,low polyreactivity
4,QVQLVESGGGLVQAGGSLRLSCADSGSTFWFYERGWYSQAPGKVRELVAVISNSGSTYYADSVKGLFTISRDNAKNTVYLQMNSLKPEDTAVYYCNKDGGGDSYWYDYWGQGTQVTVSS,low polyreactivity
5,QVQLVESGGGLVQAGGSLRLSCAASGSTFGTNDMGWYRQAPGKEREFVASIDWSGDSTNYADSVKGRFTISRDNAKNTVYLQMNSLKPEDTAVYYCAARVFPPSRHDYWGQGTQVTVSS,high polyreactivity
6,QVQLVESGGGLVQAGGSLRLSCAASGSIFFYNAMAWYRQAPGKERELVAAINYNGGRTYYADSVKGRFTISRDNAKNTVYLQMNSMKQEDTAVYYCAARYGSGGDYWGQGTQVTVSS,low polyreactivity
7,QVQLVESGGGLVQAGGSLRLSCAASGFIFSRYAMGWYRQAPGKERELVAAISRGGSTYYADYVKGRFTISRDNAKNTVYLQMNSLKPEDTAVYYCAVRQIVRYYYWGQGTQVTVSS,high polyreactivity
8,QVQLVESGGGIVQAGGSLRLSCAASGSTFRGNDMGWYRQAPGKERELVASIDWSGGSTYYADSVKGRFTISRDNAKNTVYLQMNSLKPEDTAVYYCAADTSYWYDYYIDYVGYYYWGQGTQVTVAS,high polyreactivity
9,QVQLVESGGGLVQAGGSLRLSCAASGRIFTQYTMGCYRQAPGKERELVAAINYSGGRTNYADSVKGRFTISRDNAKNTVYLQMNSLKPEDTAVYYCAAGYRRATYGYWGQGTQVTVSS,high polyreactivity
10,QVQLVESGGGLVQAGGSLRLSCAASGSTFSQYVMGWYRQAPGKERELVAAISSGGSTYYADSVKGRFTISRDNAKNTVYLQMNSLKPEDTAVYYCAAKYDGSYVGLYWYSMNYWGQGTQVTVSS,low polyreactivity
11,QVQLLESGGGIVQAGGSLRLSCGASGSTFTLNAMGWYRQAPGTEREFVADISWSSGRTYYADSVKGRFTISRDNAKNTVYVQMNSLKQEDTAVYYCATDDFWNVKFYAYYPEFDYWGQGTQVNVSS,low polyreactivity
12,QVQLVESGGGLVHAGGSLRLSCAASGNTYLYYGLGWYRQAPVKEREMVAAITQSGGTTYYADSVKGRFTISRDNAKNTVYLQMNSLTPEDTAVYYCAATRYYYYWYVYDDRGDYWGQGTQVTVSS,low polyreactivity
13,QVQLVESGGGLVQAGGSLRLSCAASGNIFFRNAMGWYRQAPGKERELVAAISWRGTSTYYADSVKGRFTISRDNAKNTVYLQMNSLKPEDTAVYYCAARGLWPYDYWGQGTQVTVSS,low polyreactivity
14,QVQLVESGVGLVQAGGSIRLSCAASGRTFRYYTMGWYRQAPGKEREFVAAISSTGGTYYADSVKGRFTISRDNAKNTVYLQMNSLKPEDTAVYYCAATFIQVVVNVQLYDYDYWGQGTQVSVSS,low polyreactivity
15,QVQLVESGGGLVQAGGSLRLSCAAYGSTFVSNAMGWSRPAPGKERELVAAISSSGGSTYYADSVKGRFTISRDTATNTVYLQMNSLKPEDTAVYYCVDYYNGYTHNYNYWGQGTQVTVSA,low polyreactivity
16,QVQLVESGGGLVQAGGSLRLSCAASGSTIPRNALGWYRQATGKERELVPAISSGGSTYYADSVKWRFTISRDNAKNTVYLQMNRLKPEDTAVYYCAARLYWPIIVVDLYGYDYWGQGTQVTVSS,low polyreactivity
17,QVQLVESGGGLVQAGGSLRLSCAASGRILSVYAMGWYRQAPGKERELVAAIEYSGGSTNYADSVKGRFTISRDNAKHTVYLQMNSLKPEDTAVYYCNREGGAIAWRYLLEYLYSWGQGTQVTVSS,low polyreactivity
18,QVQLVESGGGLVQAGGSLRLSCAASGLTFNLYAMGWYRQAPGKEWELVAAITRNGGSTYYADSVKGPFTISRDNAKNSVYLELNSLKPEDTAVYYCATGWLGTPYGYRRFGYWGQGTQVTVSS,high polyreactivity
19,QVQLVESGGGLVQAGGSLRLSCAASGSTNRAYAMGWYRQAPGKERELVAAISYSGDSTYYADSVKGRFTISRDNAKNTVYLQMNSLKPEVTAVYYCNTAVWGPHRYDYWGQGTQVTVSS,low polyreactivity
20,QVKLQESGGGLVQAGGSLRLSCAASGNISVTGFMGWYRQAPGKERELVASIGIGGTTYYADSVKGRFSISRDNANNTLYLQMNSLKPEDTAVYYCAARYLYYAYSYWGQGTQVTVSS,low polyreactivity
